Assay results from US10941182 (Amgen, dated 2021).
Each block holds one binder with its values, some of them ahead of it. Starred links: 1 amine or outer side, 2 acyl side, 3 side chain; linkers in the order of their positions; H or OH if unused. Non-standard residues stand in square brackets, D forms with d. Primed or numbered codes have the meaning given here. *: point of attachment. AC4Abu = α-carboxy-4-aminobutyric acid, O=C(C(CCN[*:1])C(=O)[*:3])[*:2]; Oic = O=C(O)[C@@H]1C[C@@H]2CCCC[C@@H]2N1; Phe(4-Cl) = N[C@@H](Cc1ccc(Cl)cc1)C(=O)O; γGlu = O=C(O)[C@H](CCC(=O)[*:2])N[*:1]; NMeR = CN[C@@H](CCCNC(=N)N)C(=O)O; Tridecanoyl = CCCCCCCCCCCCC(=O)*; Cha = N[C@@H](CC1CCCCC1)C(=O)O; Tle = CC(C)(C)[C@H](N)C(=O)O; αMeP = C[C@@]1(C(=O)O)CCCN1; β3hP = O=C(O)C[C@@H]1CCCN1; Nle = CCCC[C@H](N)C(=O)O; Pip′ = not defined here; Deg = CCC(N)(CC)C(=O)O; AEEA = NCCOCCOCC(=O)O; Aib = CC(C)(N)C(=O)O

What was measured:
human APJ receptor = molecular target: T1, human APJ receptor (human, UniProt P35414 1-380); experiment: cell-based or functional assay
T1 sequence (looked up): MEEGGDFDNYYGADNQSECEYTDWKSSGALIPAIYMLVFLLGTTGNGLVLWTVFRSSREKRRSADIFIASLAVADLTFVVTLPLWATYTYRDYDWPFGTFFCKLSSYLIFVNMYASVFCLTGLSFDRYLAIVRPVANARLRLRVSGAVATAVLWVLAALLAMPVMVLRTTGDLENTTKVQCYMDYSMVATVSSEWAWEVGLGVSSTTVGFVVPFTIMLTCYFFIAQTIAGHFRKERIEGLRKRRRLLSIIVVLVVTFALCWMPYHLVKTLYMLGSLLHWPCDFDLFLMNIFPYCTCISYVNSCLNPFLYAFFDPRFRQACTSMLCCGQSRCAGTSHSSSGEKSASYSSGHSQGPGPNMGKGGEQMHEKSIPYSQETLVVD

rat APJ receptor = molecular target: T2, rat APJ receptor (rat, UniProt Q9JHG3 1-377); experiment: cell-based or functional assay
T2 sequence (looked up): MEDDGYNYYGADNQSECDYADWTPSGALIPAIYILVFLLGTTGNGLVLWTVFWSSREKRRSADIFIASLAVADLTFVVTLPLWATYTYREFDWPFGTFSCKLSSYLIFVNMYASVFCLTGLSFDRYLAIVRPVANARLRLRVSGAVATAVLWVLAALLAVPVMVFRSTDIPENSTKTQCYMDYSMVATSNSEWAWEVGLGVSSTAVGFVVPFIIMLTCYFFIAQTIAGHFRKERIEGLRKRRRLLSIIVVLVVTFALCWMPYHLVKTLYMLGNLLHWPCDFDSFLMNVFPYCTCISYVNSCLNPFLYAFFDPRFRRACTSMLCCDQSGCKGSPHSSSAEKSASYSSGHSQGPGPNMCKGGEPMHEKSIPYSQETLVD

EC50 Human APJ Receptor (GTPγS assay) (human APJ receptor): 0.308 nM
EC50 Rat APJ Receptor (GTPγS assay) (rat APJ receptor): 0.086 nM
B5: Apelin polypeptide SEQ ID NO: 361 (peptide)
peptide: Tridecanoyl-[γGlu][AEEA][AEEA]QRP[NMeR][Cha]SHKGP[Nle]P[Phe(4-Cl)]-OH
SMILES: CCCCCCCCCCCCC(=O)N[C@@H](CCC(=O)NCCOCCOCC(=O)NCCOCCOCC(=O)N[C@@H](CCC(N)=O)C(=O)N[C@@H](CCCNC(=N)N)C(=O)N1CCC[C@H]1C(=O)N(C)[C@@H](CCCNC(=N)N)C(=O)N[C@@H](CC1CCCCC1)C(=O)N[C@@H](CO)C(=O)N[C@@H](Cc1c[nH]cn1)C(=O)N[C@@H](CCCCN)C(=O)NCC(=O)N1CCC[C@H]1C(=O)N[C@@H](CCCC)C(=O)N1CCC[C@H]1C(=O)N[C@@H](Cc1ccc(Cl)cc1)C(=O)O)C(=O)O

EC50 Human APJ Receptor (GTPγS assay) (human APJ receptor): 0.614 nM
EC50 Rat APJ Receptor (GTPγS assay) (rat APJ receptor): 0.436 nM
B7: Apelin polypeptide SEQ ID NO: 412 (peptide)
peptide: Tridecanoyl-[AC4Abu][AEEA][AEEA]QRP[NMeR][Cha]SHKG[Oic][Nle][αMeP][Phe(4-Cl)]-OH
SMILES: CCCCCCCCCCCCC(=O)NCCC(C(=O)O)C(=O)NCCOCCOCC(=O)NCCOCCOCC(=O)N[C@@H](CCC(N)=O)C(=O)N[C@@H](CCCNC(=N)N)C(=O)N1CCC[C@H]1C(=O)N(C)[C@@H](CCCNC(=N)N)C(=O)N[C@@H](CC1CCCCC1)C(=O)N[C@@H](CO)C(=O)N[C@@H](Cc1c[nH]cn1)C(=O)N[C@@H](CCCCN)C(=O)NCC(=O)N1[C@H](C(=O)N[C@@H](CCCC)C(=O)N2CCC[C@@]2(C)C(=O)N[C@@H](Cc2ccc(Cl)cc2)C(=O)O)C[C@@H]2CCCC[C@@H]21

EC50 Human APJ Receptor (GTPγS assay) (human APJ receptor): 0.852 nM
EC50 Rat APJ Receptor (GTPγS assay) (rat APJ receptor): 5.66 nM
B9: Apelin polypeptide SEQ ID NO: 531 (peptide)
peptide: Tridecanoyl-[γGlu][AEEA][AEEA][dQ]RP[NMeR][Cha]SYKG[Oic][Nle][Aib][Phe(4-Cl)]-OH
SMILES: CCCCCCCCCCCCC(=O)N[C@@H](CCC(=O)NCCOCCOCC(=O)NCCOCCOCC(=O)N[C@H](CCC(N)=O)C(=O)N[C@@H](CCCNC(=N)N)C(=O)N1CCC[C@H]1C(=O)N(C)[C@@H](CCCNC(=N)N)C(=O)N[C@@H](CC1CCCCC1)C(=O)N[C@@H](CO)C(=O)N[C@@H](Cc1ccc(O)cc1)C(=O)N[C@@H](CCCCN)C(=O)NCC(=O)N1[C@H](C(=O)N[C@@H](CCCC)C(=O)NC(C)(C)C(=O)N[C@@H](Cc2ccc(Cl)cc2)C(=O)O)C[C@@H]2CCCC[C@@H]21)C(=O)O

EC50 Human APJ Receptor (GTPγS assay) (human APJ receptor): 5.19 nM
EC50 Rat APJ Receptor (GTPγS assay) (rat APJ receptor): 16.1 nM
B11: Apelin polypeptide SEQ ID NO: 542 (peptide)
peptide: Tridecanoyl-[γGlu][AEEA][AEEA][dQ]RP[NMeR][Cha]SHKG[Oic][Nle][β3hP][Phe(4-Cl)]-OH
SMILES: CCCCCCCCCCCCC(=O)N[C@@H](CCC(=O)NCCOCCOCC(=O)NCCOCCOCC(=O)N[C@H](CCC(N)=O)C(=O)N[C@@H](CCCNC(=N)N)C(=O)N1CCC[C@H]1C(=O)N(C)[C@@H](CCCNC(=N)N)C(=O)N[C@@H](CC1CCCCC1)C(=O)N[C@@H](CO)C(=O)N[C@@H](Cc1c[nH]cn1)C(=O)N[C@@H](CCCCN)C(=O)NCC(=O)N1[C@H](C(=O)N[C@@H](CCCC)C(=O)N2CCC[C@H]2CC(=O)N[C@@H](Cc2ccc(Cl)cc2)C(=O)O)C[C@@H]2CCCC[C@@H]21)C(=O)O

EC50 Human APJ Receptor (GTPγS assay) (human APJ receptor): 4.29 nM
EC50 Rat APJ Receptor (GTPγS assay) (rat APJ receptor): 4.71 nM
B12: Apelin polypeptide SEQ ID NO: 445 (peptide)
peptide: Tridecanoyl-[γGlu][AEEA][AEEA]QRP[NMeR][Cha]SHKG[Oic][Nle][Pip′][Phe(4-Cl)]-OH

The remaining lines, values behind:

B1: Apelin polypeptide SEQ ID NO: 541 (peptide)
peptide: Tridecanoyl-[γGlu][AEEA][AEEA][dQ]RP[NMeR][Cha]SHKG[Oic][Nle][αMeP][Phe(4-Cl)]-OH
SMILES: CCCCCCCCCCCCC(=O)N[C@@H](CCC(=O)NCCOCCOCC(=O)NCCOCCOCC(=O)N[C@H](CCC(N)=O)C(=O)N[C@@H](CCCNC(=N)N)C(=O)N1CCC[C@H]1C(=O)N(C)[C@@H](CCCNC(=N)N)C(=O)N[C@@H](CC1CCCCC1)C(=O)N[C@@H](CO)C(=O)N[C@@H](Cc1c[nH]cn1)C(=O)N[C@@H](CCCCN)C(=O)NCC(=O)N1[C@H](C(=O)N[C@@H](CCCC)C(=O)N2CCC[C@@]2(C)C(=O)N[C@@H](Cc2ccc(Cl)cc2)C(=O)O)C[C@@H]2CCCC[C@@H]21)C(=O)O
EC50 Human APJ Receptor (GTPγS assay) (human APJ receptor): 0.938 nM
EC50 Rat APJ Receptor (GTPγS assay) (rat APJ receptor): 1.98 nM

B2: Apelin polypeptide SEQ ID NO: 436 (peptide)
peptide: Tridecanoyl-[γGlu][AEEA][AEEA]QRP[NMeR][Cha]SYKG[Oic][Nle]P[Phe(4-Cl)]-OH
SMILES: CCCCCCCCCCCCC(=O)N[C@@H](CCC(=O)NCCOCCOCC(=O)NCCOCCOCC(=O)N[C@@H](CCC(N)=O)C(=O)N[C@@H](CCCNC(=N)N)C(=O)N1CCC[C@H]1C(=O)N(C)[C@@H](CCCNC(=N)N)C(=O)N[C@@H](CC1CCCCC1)C(=O)N[C@@H](CO)C(=O)N[C@@H](Cc1ccc(O)cc1)C(=O)N[C@@H](CCCCN)C(=O)NCC(=O)N1[C@H](C(=O)N[C@@H](CCCC)C(=O)N2CCC[C@H]2C(=O)N[C@@H](Cc2ccc(Cl)cc2)C(=O)O)C[C@@H]2CCCC[C@@H]21)C(=O)O
EC50 Human APJ Receptor (GTPγS assay) (human APJ receptor): 0.793 nM
EC50 Rat APJ Receptor (GTPγS assay) (rat APJ receptor): 1.47 nM

B3: Apelin polypeptide SEQ ID NO: 544 (peptide)
peptide: Tridecanoyl-[γGlu][AEEA][AEEA][dQ]RP[NMeR][Cha]SHKG[Pip′][Nle][β3hP][Phe(4-Cl)]-OH
EC50 Human APJ Receptor (GTPγS assay) (human APJ receptor): 2.42 nM
EC50 Rat APJ Receptor (GTPγS assay) (rat APJ receptor): 5.61 nM

B4: Apelin polypeptide SEQ ID NO: 413 (peptide)
peptide: Tridecanoyl-[AC4Abu][AEEA][AEEA]QRP[NMeR][Cha]SHKG[Oic][Tle]P[Phe(4-Cl)]-OH
SMILES: CCCCCCCCCCCCC(=O)NCCC(C(=O)O)C(=O)NCCOCCOCC(=O)NCCOCCOCC(=O)N[C@@H](CCC(N)=O)C(=O)N[C@@H](CCCNC(=N)N)C(=O)N1CCC[C@H]1C(=O)N(C)[C@@H](CCCNC(=N)N)C(=O)N[C@@H](CC1CCCCC1)C(=O)N[C@@H](CO)C(=O)N[C@@H](Cc1c[nH]cn1)C(=O)N[C@@H](CCCCN)C(=O)NCC(=O)N1[C@H](C(=O)N[C@H](C(=O)N2CCC[C@H]2C(=O)N[C@@H](Cc2ccc(Cl)cc2)C(=O)O)C(C)(C)C)C[C@@H]2CCCC[C@@H]21
EC50 Human APJ Receptor (GTPγS assay) (human APJ receptor): 1.53 nM
EC50 Rat APJ Receptor (GTPγS assay) (rat APJ receptor): 1.54 nM

B6: Apelin polypeptide SEQ ID NO: 437 (peptide)
peptide: Tridecanoyl-[γGlu][AEEA][AEEA]QRP[NMeR][Cha]SVKG[Oic][Nle]P[Phe(4-Cl)]-OH
SMILES: CCCCCCCCCCCCC(=O)N[C@@H](CCC(=O)NCCOCCOCC(=O)NCCOCCOCC(=O)N[C@@H](CCC(N)=O)C(=O)N[C@@H](CCCNC(=N)N)C(=O)N1CCC[C@H]1C(=O)N(C)[C@@H](CCCNC(=N)N)C(=O)N[C@@H](CC1CCCCC1)C(=O)N[C@@H](CO)C(=O)N[C@H](C(=O)N[C@@H](CCCCN)C(=O)NCC(=O)N1[C@H](C(=O)N[C@@H](CCCC)C(=O)N2CCC[C@H]2C(=O)N[C@@H](Cc2ccc(Cl)cc2)C(=O)O)C[C@@H]2CCCC[C@@H]21)C(C)C)C(=O)O
EC50 Human APJ Receptor (GTPγS assay) (human APJ receptor): 0.663 nM
EC50 Rat APJ Receptor (GTPγS assay) (rat APJ receptor): 0.725 nM

B8: Apelin polypeptide SEQ ID NO: 487 (peptide)
peptide: Tridecanoyl-[γGlu][AEEA][AEEA]QRP[NMeR][Cha]SHKG[Oic][Nle][β3hP][Phe(4-Cl)]-OH
SMILES: CCCCCCCCCCCCC(=O)N[C@@H](CCC(=O)NCCOCCOCC(=O)NCCOCCOCC(=O)N[C@@H](CCC(N)=O)C(=O)N[C@@H](CCCNC(=N)N)C(=O)N1CCC[C@H]1C(=O)N(C)[C@@H](CCCNC(=N)N)C(=O)N[C@@H](CC1CCCCC1)C(=O)N[C@@H](CO)C(=O)N[C@@H](Cc1c[nH]cn1)C(=O)N[C@@H](CCCCN)C(=O)NCC(=O)N1[C@H](C(=O)N[C@@H](CCCC)C(=O)N2CCC[C@H]2CC(=O)N[C@@H](Cc2ccc(Cl)cc2)C(=O)O)C[C@@H]2CCCC[C@@H]21)C(=O)O
EC50 Human APJ Receptor (GTPγS assay) (human APJ receptor): 1.83 nM
EC50 Rat APJ Receptor (GTPγS assay) (rat APJ receptor): 8.19 nM

B10: Apelin polypeptide SEQ ID NO: 549 (peptide)
peptide: Tridecanoyl-[γGlu][AEEA][AEEA][dQ]RP[NMeR][Cha]SHKG[Oic][Nle][Deg][Phe(4-Cl)]-OH
SMILES: CCCCCCCCCCCCC(=O)N[C@@H](CCC(=O)NCCOCCOCC(=O)NCCOCCOCC(=O)N[C@H](CCC(N)=O)C(=O)N[C@@H](CCCNC(=N)N)C(=O)N1CCC[C@H]1C(=O)N(C)[C@@H](CCCNC(=N)N)C(=O)N[C@@H](CC1CCCCC1)C(=O)N[C@@H](CO)C(=O)N[C@@H](Cc1c[nH]cn1)C(=O)N[C@@H](CCCCN)C(=O)NCC(=O)N1[C@H](C(=O)N[C@@H](CCCC)C(=O)NC(CC)(CC)C(=O)N[C@@H](Cc2ccc(Cl)cc2)C(=O)O)C[C@@H]2CCCC[C@@H]21)C(=O)O
EC50 Human APJ Receptor (GTPγS assay) (human APJ receptor): 1.2 nM
EC50 Rat APJ Receptor (GTPγS assay) (rat APJ receptor): 4 nM

B13: Apelin polypeptide SEQ ID NO: 499 (peptide)
peptide: Tridecanoyl-[γGlu][AEEA][AEEA][dQ]RP[NMeR][Cha]SHKG[Pip′][Nle][Aib][Phe(4-Cl)]-OH
EC50 Human APJ Receptor (GTPγS assay) (human APJ receptor): 0.0236 nM
EC50 Rat APJ Receptor (GTPγS assay) (rat APJ receptor): 0.0852 nM
